Data as given in patent US20030018175A1.

Biological target: human alpha-1-antitrypsin (Sigma) (human) (UniProt P01009)
Test: cell-based or functional assay

UniProt P01009, sequence (P01009 25-418 limits assumed): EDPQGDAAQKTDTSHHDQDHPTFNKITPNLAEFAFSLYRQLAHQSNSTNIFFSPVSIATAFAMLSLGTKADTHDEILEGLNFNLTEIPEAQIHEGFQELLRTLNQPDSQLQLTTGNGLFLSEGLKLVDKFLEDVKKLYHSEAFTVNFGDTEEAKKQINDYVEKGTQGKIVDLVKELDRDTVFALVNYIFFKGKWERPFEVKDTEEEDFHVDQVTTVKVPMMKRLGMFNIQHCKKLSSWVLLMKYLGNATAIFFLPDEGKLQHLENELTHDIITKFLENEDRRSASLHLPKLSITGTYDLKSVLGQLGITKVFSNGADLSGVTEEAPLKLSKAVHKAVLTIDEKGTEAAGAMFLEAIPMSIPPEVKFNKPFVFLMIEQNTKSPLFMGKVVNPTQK

| Molecule | % residual amidolytic activity, 16.6 µM inhibitor, 20 h at 37 °C | % residual amidolytic activity, 42.3 µM inhibitor, 20 h at 37 °C |
| --- | --- | --- |
| APC conjugate E307N+E309T (enzyme) | 10% | < 1% |
| APC conjugate K191N+K193T (enzyme) | 59% | 24% |
| APC conjugate K217N+L219T (enzyme) | 20% | 4% |
| APC conjugate L386N+H388T (enzyme) | 68% | 44% |
| APC conjugate S305N+E307T (enzyme) | 42% | 9% |
| APC conjugate T253N+D255T (enzyme) | 56% | 38% |
| APC variant D189N+K191N (control) (enzyme) | 12% | < 1% |
| APC variant M338A (control) (enzyme) | 9% | 2% |
| APC variant S252N (enzyme) | 62% | 34% |
| APC variant Y302N (enzyme) | 50% | 30% |
| wild-type COS 7 APC (enzyme) | 7% | < 1% |

Further lines, results first:

| % residual amidolytic activity, 16.6 µM inhibitor, 20 h at 37 °C | % residual amidolytic activity, 42.3 µM inhibitor, 20 h at 37 °C | Molecule |
| --- | --- | --- |
| 90% | 77% | APC conjugate D189N+K191T (enzyme) |
| 80% | 81% | APC conjugate D214N (enzyme) |
| 38% | 12% | APC conjugate M338N (enzyme) |
| 72% | 40% | APC conjugate S336N+M338T (enzyme) |
| 21% | 1% | APC variant D214A (control) (enzyme) |
| 62% | 53% | APC variant K251N (enzyme) |
| 28% | 5% | APC variant S190N+K192T (enzyme) |
| 10% | 2% | wild-type plasma APC (enzyme, two chains: light 1-155, heavy 170-419) ANSFLEELRHSSLERECIEEICDFEEAKEIFQNVDDTLAFWSKHVDGDQCLVLPLEHPCASLCCGHGTCIDGIGSFSCDCRSGWEGRFCQREVSFLNCSLDNGGCTHYCLEEVGWRRCSCAPGYKLGDDLLQCHPAVKFPCGRPWKRMEKKRSHLLIDGKMTRRGDSPWQVVLLDSKKKLACGAVLIHPSWVLTAAHCMDESKKLLVRLGEYDLRRWEKWELDLDIKEVFVHPNYSKSTTDNDIALLHLAQPATLSQTIVPICLPDSGLAERELNQAGQETLVTGWGYHSSREKEAKRNRTFVLNFIKIPVVPHNECSEVMSNMVSENMLCAGILGDRQDACEGDSGGPMVASFHGTWFLVGLVSWGEGCGLLHNYGVYTKVSRYLDWIHGHIRDKEAPQKSWAP |
